Results as given in article PMC6956557, “Preclinical development of a novel CD47 nanobody with less toxicity and enhanced anti-cancer therapeutic potential” (Journal of Nanobiotechnology, 2020).

Columns and labels:
[1] = biological target: T1, hCD47 (ECD)-Fc (Homo sapiens, UniProt Q08722); experiment: ELISA; 5 μg/mL CD47 (ECD)-Fc proteins coated overnight at 4 °C, 1% BSA block, 10 μg/mL Nb for 1 h at room temperature; mouse anti-HA and anti-mouse IgG-alkaline phosphatase, A405; settings: both partners purified
T1 construct: human CD47 ectodomain (ECD), residues 20-136; Cloned into a pFUSE vector; also called human CD47 (ECD)-Fc; recombinant hCD47 antigen
T1 sequence (Q08722 20-136): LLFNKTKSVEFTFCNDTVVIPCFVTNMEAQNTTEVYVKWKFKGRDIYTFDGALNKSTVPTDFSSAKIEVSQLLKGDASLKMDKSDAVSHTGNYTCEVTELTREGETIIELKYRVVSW

[2] = biological target: T2, mouse CD47 (ECD)-Fc (Mus musculus, UniProt Q61735); experiment: as above; settings: both partners purified
T2 construct: mouse CD47 ectodomain (ECD); source: HEK-293F, purified

[3] = biological target: T3, rat CD47 (ECD)-Fc (Rattus norvegicus, UniProt P97829); experiment: as above; settings: both partners purified
T3 construct: rat CD47 ectodomain (ECD); source: HEK-293F, purified

[4] = biological target: T4, human CD47 on the surface of cells (human (endogenous in Raji), UniProt Q08722); experiment: flow cytometry on cells; competition: Raji cells co-incubated with HuNb1-biotin or Rituximab-biotin and unlabelled antibody; streptavidin-PE; settings: one partner purified
T4 construct: human CD47 (integrin-associated protein) on the cell surface; also called hCD47; CD47 expressed on Raji cells; source: endogenous, on Raji cells; endogenous, on human RBCs of healthy donors
T4 sequence (Q08722 19-323): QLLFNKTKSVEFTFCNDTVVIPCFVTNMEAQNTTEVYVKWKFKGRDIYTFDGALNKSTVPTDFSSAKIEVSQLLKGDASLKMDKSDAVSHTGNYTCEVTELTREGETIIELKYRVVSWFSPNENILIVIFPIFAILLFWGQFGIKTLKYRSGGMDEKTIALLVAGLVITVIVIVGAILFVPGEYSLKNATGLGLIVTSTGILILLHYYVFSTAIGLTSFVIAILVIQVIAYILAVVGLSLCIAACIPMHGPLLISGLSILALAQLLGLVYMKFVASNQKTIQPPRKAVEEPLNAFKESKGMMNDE

| binding result [1] | binding result [2] | binding result [3] | binding result [4] | Binder |
| --- | --- | --- | --- | --- |
| binds | no binding (tested: 10 μg/mL) | no binding (tested: 10 μg/mL) | – | HuNb1 (VHH, as the VHH of m1; The nanobody alone as used in the ELISA, detected by an anti-HA antibody; also called CD47 Nb; source: E. coli WK6 (pMECS), purified (Ni-sepharose)) VHH: QVQLQESGGGLVQPGGSLRLSCAASGYAYTSDCMGWFRQTPGKGLEGVALIYTPGNSTNYADSVKGRFTISQDNSKSTVYLQMNSLRAEDTAMYYCAARRGACSLRLPFFYWGQGTLVTVSS |
| – | – | – | binds | HuNb1-biotin (VHH, as the VHH of m1) VHH: QVQLQESGGGLVQPGGSLRLSCAASGYAYTSDCMGWFRQTPGKGLEGVALIYTPGNSTNYADSVKGRFTISQDNSKSTVYLQMNSLRAEDTAMYYCAARRGACSLRLPFFYWGQGTLVTVSS |
